Earlier results as cited in publication PMC5493979.

Target: LRAT (UniProt O95237)
Chain of UniProt O95237 (O95237 whole entry): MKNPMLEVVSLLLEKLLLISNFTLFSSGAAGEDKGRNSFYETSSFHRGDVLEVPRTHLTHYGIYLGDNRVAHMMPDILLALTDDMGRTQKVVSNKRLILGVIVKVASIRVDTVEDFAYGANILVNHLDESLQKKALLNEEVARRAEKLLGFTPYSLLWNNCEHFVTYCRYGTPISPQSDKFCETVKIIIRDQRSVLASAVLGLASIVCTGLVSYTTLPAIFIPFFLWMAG

**Q.** With apo-CRBP1 (from UniProt P09455) as the substance, how does the Ki read?
**A.** 200 nM
